Measured values reported in PMC5667929, “Combinatorial action of Grainyhead, Extradenticle and Notch in regulating Hox mediated apoptosis in Drosophila larval CNS”.

T1: Exd/Hth-HM (UniProt P40427;O46339 1-376;127-211)
T1 sequence 1: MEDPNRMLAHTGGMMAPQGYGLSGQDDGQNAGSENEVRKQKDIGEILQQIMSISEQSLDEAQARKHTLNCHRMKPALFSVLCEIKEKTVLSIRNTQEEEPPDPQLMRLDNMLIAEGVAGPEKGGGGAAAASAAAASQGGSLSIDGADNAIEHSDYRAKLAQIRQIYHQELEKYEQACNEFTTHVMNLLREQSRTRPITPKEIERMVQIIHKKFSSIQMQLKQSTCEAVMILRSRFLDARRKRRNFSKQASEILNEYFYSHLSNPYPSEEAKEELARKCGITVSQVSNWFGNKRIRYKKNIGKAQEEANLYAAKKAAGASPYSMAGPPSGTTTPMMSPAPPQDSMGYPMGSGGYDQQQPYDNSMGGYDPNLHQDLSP
T1 sequence 2: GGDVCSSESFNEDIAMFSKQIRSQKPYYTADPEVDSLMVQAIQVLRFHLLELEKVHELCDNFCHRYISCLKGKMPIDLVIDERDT

B1: motif-30 WT (dsDNA)
DNA 1: GAAACAGGATAACCATAACTAATCC
DNA 2: GGATTAGTTATGGTTATCCTGTTTC
B2: motif-30 Grh2 mutant (dsDNA)
DNA 1: GAAACAGGATAACGATAACTAATCC
DNA 2: GGATTAGTTATCGTTATCCTGTTTC
B3: motif-30 Hox1 mutant (dsDNA)
DNA 1: GAAACAGGAGAACCATAACTAATCC
DNA 2: GGATTAGTTATGGTTCTCCTGTTTC
B4: motif-30 Hox2 mutant (dsDNA)
DNA 1: GAAACAGGATAACCAGGACTAATCC
DNA 2: GGATTAGTCCTGGTTATCCTGTTTC
B5: motif-30 Hox1+2 mutant (dsDNA)
DNA 1: GAAACAGGAGAACCAGGACTAATCC
DNA 2: GGATTAGTCCTGGTTCTCCTGTTTC
B6: motif-32 (dsDNA)
DNA 1: TTGCATGTGCGGATATATATATGTGGAACCACCTTG
DNA 2: CAAGGTGGTTCCACATATATATATCCGCACATGCAA
B7: motif-30 Exd mutant (dsDNA)
DNA 1: GAAACAGGATAACCATAACTGCTCC
DNA 2: GGAGCAGTTATGGTTATCCTGTTTC
B8: motif-25 (dsDNA)
DNA 1: CGGGATATCACCAAACCATAGAAAATTTGCGGTACA
DNA 2: TGTACCGCAAATTTTCTATGGTTTGGTGATATCCCG
B9: motif-28 (dsDNA)
DNA 1: AAGCCGAGCCTGAATCAGGTACTCAAATTGTCGC
DNA 2: GCGACAATTTGAGTACCTGATTCAGGCTCGGCTT
B10: motif-27 (dsDNA)
DNA 1: TATATGTGGAACCACCTTGAAAGTCTACTGCCTGATTAGT
DNA 2: ACTAATCAGGCAGTAGACTTTCAAGGTGGTTCCACATATA
B11: motif-33 (dsDNA)
DNA 1: TACTGCCTGATTAGTGTAAATAATTGCCAGTCCTTG
DNA 2: CAAGGACTGGCAATTATTTACACTAATCAGGCAGTA
B12: motif-31 (dsDNA)
DNA 1: ACACAATTTTCTAAGATCCACTGGAATCGGTATGCCGATAGTT
DNA 2: AACTATCGGCATACCGATTCCAGTGGATCTTAGAAAATTGTGT
B13: motif-23 (dsDNA)
DNA 1: CTATTATCACTATTGCTTTGCTTCCTCAAAACCTTCATTCGA
DNA 2: TCGAATGAAGGTTTTGAGGAAGCAAAGCAATAGTGATAATAG
B14: motif-29 (Hox-Exd consensus) (dsDNA)
DNA 1: CTCAAGCGCGTGATGAATGTAATCTTCG
DNA 2: CGAAGATTACATTCATCACGCGCTTGAG

molecular target: T1, Exd/Hth-HM; assay: EMSA; 200 ng; another sentence claims strong binding of each protein; EMSA, 20 ul, 30 min, room temperature; 5X buffer as printed: 20% glycerol, 1 mg/ml BSA, 2.5 mM EDTA, '50mM 1M tris' pH 7.5, 50 mM KCl, 5 mM MgCl2, 2.5 mM DTT, 90 ug/ml poly(dI-dC); proteins 100-200 ng; conditions: protein: recombinant; tags: 6xHis; copies: 1;1

**Q.** Does B1 bind?
**A.** no binding

molecular target: T2, AbdA (Hox);Exd/Hth-HM;Grh (Drosophila melanogaster?;Drosophila …, UniProt P29555;P40427;O46339;P13002 261-590;1-376;127-211;551-1333, ||); assay: EMSA; intact; slightly reduced intensity per legend; EMSA, 20 ul, 30 min, room temperature; 5X buffer as printed: 20% glycerol, 1 mg/ml BSA, 2.5 mM EDTA, '50mM 1M tris' pH 7.5, 50 mM KCl, 5 mM MgCl2, 2.5 mM DTT, 90 ug/ml poly(dI-dC); proteins 100-200 ng; conditions: protein: recombinant;recombinant;recombinant; tags: 6xHis;6xHis;6xHis; copies: 1;1;1;2
Target sequence in this assay (P29555 261-590, chain 1 of 2): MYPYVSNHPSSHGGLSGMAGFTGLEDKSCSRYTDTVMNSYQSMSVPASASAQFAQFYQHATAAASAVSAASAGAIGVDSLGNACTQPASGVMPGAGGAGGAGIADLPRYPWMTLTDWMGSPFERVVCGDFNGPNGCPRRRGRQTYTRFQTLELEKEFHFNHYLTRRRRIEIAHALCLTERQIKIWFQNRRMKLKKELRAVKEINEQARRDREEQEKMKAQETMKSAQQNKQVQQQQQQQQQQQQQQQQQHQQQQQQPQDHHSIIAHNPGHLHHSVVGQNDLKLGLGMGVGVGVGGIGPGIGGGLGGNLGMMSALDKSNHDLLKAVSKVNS
Target sequence in this assay (P13002 551-1333, chain 4 of 2): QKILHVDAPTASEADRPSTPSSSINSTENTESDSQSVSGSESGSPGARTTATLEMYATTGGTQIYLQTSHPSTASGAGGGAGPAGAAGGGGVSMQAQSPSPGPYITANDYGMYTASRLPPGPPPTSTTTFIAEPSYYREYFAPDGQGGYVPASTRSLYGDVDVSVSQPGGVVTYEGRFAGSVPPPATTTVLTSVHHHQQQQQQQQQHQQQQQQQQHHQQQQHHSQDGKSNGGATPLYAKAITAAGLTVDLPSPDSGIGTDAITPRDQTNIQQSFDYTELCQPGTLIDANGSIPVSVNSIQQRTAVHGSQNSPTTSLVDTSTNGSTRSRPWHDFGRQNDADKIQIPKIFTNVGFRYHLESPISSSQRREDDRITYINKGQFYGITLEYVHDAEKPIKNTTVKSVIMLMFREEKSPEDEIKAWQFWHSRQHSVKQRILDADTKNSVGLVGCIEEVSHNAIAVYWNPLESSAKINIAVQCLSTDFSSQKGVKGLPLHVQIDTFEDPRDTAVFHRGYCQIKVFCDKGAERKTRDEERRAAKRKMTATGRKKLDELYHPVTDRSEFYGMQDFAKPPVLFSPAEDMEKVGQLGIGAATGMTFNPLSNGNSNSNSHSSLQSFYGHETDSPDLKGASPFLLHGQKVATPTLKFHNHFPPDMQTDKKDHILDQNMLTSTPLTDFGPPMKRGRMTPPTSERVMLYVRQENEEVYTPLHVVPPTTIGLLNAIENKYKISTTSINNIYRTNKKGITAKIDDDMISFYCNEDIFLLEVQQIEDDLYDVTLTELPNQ

**Q.** Does B2 bind?
**A.** binds

molecular target: T3, AbdA (Hox);Exd/Hth-HM (Drosophila melanogaster?;Drosophila …, UniProt P29555;P40427;O46339 261-590;1-376;127-211, |); assay: EMSA; intact in text; slightly reduced per legend; EMSA, 20 ul, 30 min, room temperature; 5X buffer as printed: 20% glycerol, 1 mg/ml BSA, 2.5 mM EDTA, '50mM 1M tris' pH 7.5, 50 mM KCl, 5 mM MgCl2, 2.5 mM DTT, 90 ug/ml poly(dI-dC); proteins 100-200 ng; conditions: protein: recombinant;recombinant; tags: 6xHis;6xHis; copies: 1;1;1
Target sequence in this assay (P29555 261-590, one chain of several): as the sequence (P29555 261-590, chain 1 of 2) above

**Q.** Does B3 bind?
**A.** binds

molecular target: T2, AbdA (Hox);Exd/Hth-HM;Grh; assay: EMSA; completely abolished in text; largely per legend; EMSA, 20 ul, 30 min, room temperature; 5X buffer as printed: 20% glycerol, 1 mg/ml BSA, 2.5 mM EDTA, '50mM 1M tris' pH 7.5, 50 mM KCl, 5 mM MgCl2, 2.5 mM DTT, 90 ug/ml poly(dI-dC); proteins 100-200 ng; conditions: protein: recombinant;recombinant;recombinant; tags: 6xHis;6xHis;6xHis; copies: 1;1;1;2
Target sequence in this assay (P29555 261-590, chain 1 of 2): as above
Target sequence in this assay (P13002 551-1333, chain 4 of 2): as the sequence (P13002 551-1333, chain 4 of 2) above

**Q.** Does B4 bind?
**A.** no binding

molecular target: T2, AbdA (Hox);Exd/Hth-HM;Grh; assay: EMSA; EMSA, 20 ul, 30 min, room temperature; 5X buffer as printed: 20% glycerol, 1 mg/ml BSA, 2.5 mM EDTA, '50mM 1M tris' pH 7.5, 50 mM KCl, 5 mM MgCl2, 2.5 mM DTT, 90 ug/ml poly(dI-dC); proteins 100-200 ng; conditions: protein: recombinant;recombinant;recombinant; tags: 6xHis;6xHis;6xHis; copies: 1;1;1;2
Target sequence in this assay (P29555 261-590, chain 1 of 4, one chain of several): as the sequence (P29555 261-590, chain 1 of 2) above
Target sequence in this assay (P13002 551-1333, chain 4 of 4, one chain of several): as the sequence (P13002 551-1333, chain 4 of 2) above

**Q.** Does B5 bind?
**A.** no binding

**Q.** Does B1 bind?
**A.** binds

**Q.** Does B6 bind?
**A.** binds

**Q.** Does B7 bind?
**A.** no binding

**Q.** Does B8 bind?
**A.** no binding

**Q.** Does B9 bind?
**A.** no binding

**Q.** Does B10 bind?
**A.** binds

**Q.** Does B11 bind?
**A.** no binding

**Q.** Does B12 bind?
**A.** no binding

molecular target: T4, Grh (UniProt P13002 551-1333); assay: as above; conditions: protein: recombinant; tags: 6xHis; chain copies: 2
T4 sequence (P13002 551-1333): as the sequence (P13002 551-1333, chain 4 of 2) above

**Q.** Does B1 bind?
**A.** binds

**Q.** Does B6 bind?
**A.** binds

**Q.** Does B7 bind?
**A.** binds

**Q.** Does B8 bind?
**A.** binds

**Q.** Does B9 bind?
**A.** binds

**Q.** Does B13 bind?
**A.** binds

**Q.** Does B10 bind?
**A.** binds

**Q.** Does B11 bind?
**A.** binds

**Q.** Does B12 bind?
**A.** binds

**Q.** Does B14 bind?
**A.** no binding

**Q.** Does B4 bind?
**A.** binds

molecular target: AbdA (Hox);Grh (Drosophila melanogaster?;Drosophila …, UniProt P29555;P13002 261-590;551-1333, |); assay: as above; conditions: protein: recombinant;recombinant; tags: 6xHis;6xHis; copies: 1;2
Sequence (P29555 261-590, chain 1 of 2): as the sequence (P29555 261-590, chain 1 of 2) above
Sequence (P13002 551-1333, chain 2 of 2): as the sequence (P13002 551-1333, chain 4 of 2) above

**Q.** Does B5 bind?
**A.** no binding

**Q.** Does B1 bind?
**A.** binds

**Q.** Does B7 bind?
**A.** binds

**Q.** Does B9 bind?
**A.** binds

**Q.** Does B11 bind?
**A.** binds

**Q.** Does B4 bind?
**A.** no binding

molecular target: T1, Exd/Hth-HM; assay: as above; conditions: protein: recombinant; tags: 6xHis; copies: 1;1

**Q.** Does B6 bind?
**A.** binds

**Q.** Does B11 bind?
**A.** binds

molecular target: T3, AbdA (Hox);Exd/Hth-HM; assay: as above; conditions: protein: recombinant;recombinant; tags: 6xHis;6xHis; copies: 1;1;1

**Q.** Does B5 bind?
**A.** no binding

**Q.** Does B1 bind?
**A.** binds

**Q.** Does B6 bind?
**A.** binds

**Q.** Does B7 bind?
**A.** no binding

**Q.** Does B8 bind?
**A.** binds

**Q.** Does B9 bind?
**A.** binds

**Q.** Does B13 bind?
**A.** binds

**Q.** Does B10 bind?
**A.** binds

**Q.** Does B11 bind?
**A.** binds

**Q.** Does B12 bind?
**A.** binds

**Q.** Does B14 bind?
**A.** binds

**Q.** Does B4 bind?
**A.** no binding

molecular target: T5, AbdA (Hox) (UniProt P29555 261-590); assay: as above; conditions: protein: recombinant; tags: 6xHis
T5 sequence (P29555 261-590): as the sequence (P29555 261-590, chain 1 of 2) above

**Q.** Does B5 bind?
**A.** no binding

**Q.** Does B11 bind?
**A.** binds

**Q.** Does B12 bind?
**A.** binds

**Q.** Does B4 bind?
**A.** no binding

molecular target: T4, Grh; assay: EMSA; no significant decrease; EMSA, 20 ul, 30 min, room temperature; 5X buffer as printed: 20% glycerol, 1 mg/ml BSA, 2.5 mM EDTA, '50mM 1M tris' pH 7.5, 50 mM KCl, 5 mM MgCl2, 2.5 mM DTT, 90 ug/ml poly(dI-dC); proteins 100-200 ng; conditions: protein: recombinant; tags: 6xHis; chain copies: 2

**Q.** Does B2 bind?
**A.** binds

molecular target: T5, AbdA (Hox); assay: EMSA; 100 and 200 ng; EMSA, 20 ul, 30 min, room temperature; 5X buffer as printed: 20% glycerol, 1 mg/ml BSA, 2.5 mM EDTA, '50mM 1M tris' pH 7.5, 50 mM KCl, 5 mM MgCl2, 2.5 mM DTT, 90 ug/ml poly(dI-dC); proteins 100-200 ng; conditions: protein: recombinant; tags: 6xHis

**Q.** Does B1 bind?
**A.** binds
